Experimental data from patent US20180362596.

Target: human plasmin (UniProt P00747)
Sequence (P00747 97-810): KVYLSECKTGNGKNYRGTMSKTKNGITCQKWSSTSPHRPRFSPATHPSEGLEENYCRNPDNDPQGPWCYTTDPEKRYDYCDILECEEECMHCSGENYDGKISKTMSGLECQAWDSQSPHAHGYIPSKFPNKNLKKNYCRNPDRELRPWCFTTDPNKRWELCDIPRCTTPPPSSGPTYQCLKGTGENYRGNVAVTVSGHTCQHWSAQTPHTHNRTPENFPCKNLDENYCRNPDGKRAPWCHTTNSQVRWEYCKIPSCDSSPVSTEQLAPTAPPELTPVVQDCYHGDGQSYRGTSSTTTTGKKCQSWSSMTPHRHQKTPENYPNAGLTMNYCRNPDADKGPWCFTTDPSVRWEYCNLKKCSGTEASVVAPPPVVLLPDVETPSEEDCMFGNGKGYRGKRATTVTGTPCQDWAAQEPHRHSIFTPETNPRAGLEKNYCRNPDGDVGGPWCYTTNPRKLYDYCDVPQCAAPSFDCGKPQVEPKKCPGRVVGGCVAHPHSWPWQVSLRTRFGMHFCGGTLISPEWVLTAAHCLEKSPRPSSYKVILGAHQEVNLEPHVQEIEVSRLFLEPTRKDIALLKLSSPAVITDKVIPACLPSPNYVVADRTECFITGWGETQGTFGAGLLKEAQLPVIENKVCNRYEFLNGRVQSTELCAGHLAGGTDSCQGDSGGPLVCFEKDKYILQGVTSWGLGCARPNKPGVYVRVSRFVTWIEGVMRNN

With “clot specific streptokinase (CSSK), FBD(4,5)-SK-FBD(4,5), expressed in E. coli” the “lag in plasminogen activation activity with added plasmin” value was “there was a progressive decrease in the lag in activity in the presence of increasing amounts of plasmin added to the reaction”.
With “clot specific streptokinase (CSSK), FBD(4,5)-SK-FBD(4,5), expressed in Pichia pastoris (pPIC9K-alpha modified CSSK/GS115), glycosylated” the “lag in plasminogen activation activity with added plasmin” value was “there was a progressive decrease in the lag in activity in the presence of increasing amounts of plasmin added to the reaction”.
